Assay results as given in publication PMC4959528, “SpoVG Is a Conserved RNA-Binding Protein That Regulates Listeria monocytogenes Lysozyme Resistance, Virulence, and Swarming Motility”.

What was measured:
[1] = biological target: T1, SpoVG-6-His (Listeria monocytogenes 10403S) (UniProt Q8YAD5); assay: EMSA; conditions: 2x buffer: 40 mM Tris-HCl pH 8.0, 2 mM MgCl2, 20% glycerol, 300 mM NaCl, 5 mM DTT, plus 5 ug yeast tRNA, 1 ug BSA, 100 ng poly(dI-dC) …
T1 sequence: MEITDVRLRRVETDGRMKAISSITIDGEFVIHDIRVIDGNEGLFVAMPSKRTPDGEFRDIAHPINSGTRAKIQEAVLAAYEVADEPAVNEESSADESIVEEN

[2] = biological target: T1, SpoVG-6-His (Listeria monocytogenes 10403S); assay: competition; conditions: EMSA, 2x buffer: 40 mM Tris-HCl pH 8.0, 2 mM MgCl2, 20% glycerol, 300 mM NaCl, 5 mM DTT; plus 5 ug yeast tRNA, 1 ug BSA, 100 ng poly(dI-dC) …
[3] = biological target: T2, SpoVG-6-His (Listeria monocytogenes 10403S, UniProt Q8YAD5 1-102); assay: EMSA; EMSA, 2x buffer: 40 mM Tris-HCl pH 8.0, 2 mM MgCl2, 20% glycerol, 300 mM NaCl, 5 mM DTT; plus 5 ug yeast tRNA, 1 ug BSA, 100 ng poly(dI-dC); 25-30 ul, room temperature 30 min, 5% native PAGE; conditions: protein: recombinant; tags: C-terminal 6xHis; label: 32P
T2 sequence: T1 sequence

[4] = biological target: T2, SpoVG-6-His; assay: EMSA; no significant binding to dsDNA; EMSA, 2x buffer: 40 mM Tris-HCl pH 8.0, 2 mM MgCl2, 20% glycerol, 300 mM NaCl, 5 mM DTT; plus 5 ug yeast tRNA, 1 ug BSA, 100 ng poly(dI-dC); 25-30 ul, room temperature 30 min, 5% native PAGE; conditions: protein: recombinant; tags: C-terminal 6xHis; label: 32P; blunt

Q: For Rli109, which Kd [1] is on record?
A: 129 nM

Q: With “GGUUGUCGUGCUAGACGGGGAGGUAGCGGCGCCCUGUAACCCGCAAUCCGCUCUAGCGGGGUUGAAUUCCUCAUUUGAGGCAUCGUAAUUGUUUGGUCUGCCCUUGACAAGUGGUGUUGAAGGUUGGGUCUUGCGCAAUGGGAACCUGUGAACCAUGUCAGGUCCGGAAGGAAGCAGCAUUAAGCAGUGCUUCUCAUGUGCCGCGAGGUCGCCUGGCCCGAGCUAACUAUCAGGGUAACGCAGAUGAUUGCAUGUCGAUGUGAGGUGCGCGACACUAA [SRP RNA]” as the molecule, how does the binding [1] read?
A: no binding

Q: “GGGCAGUGGAAUUAAAGGCAUCUAAGCAAAUCAUGAUGAACGAGAGAACCGUUUGAAGAUCAUCCGAAUGACGUAUAUGUUCUACCUUGAUCUGUUCAGCCGCAAUGCUUUUGCGAGUGACA [Rli109]” was tested. Which Kd [1] did it give?
A: 129 nM

Q: What about the binding [2] of the same molecule?
A: binds

Q: How did the binding [1] turn out when “GGUGAGAUGACAUGUUUCUUUUGAAUGCGCGAACUAGUAUAGCUAAAUUUUUGUAUAUUGUCCGUGCAAUUUUUUCCGUUAUUGCAGUUACAUUGGCGAAGUCUGCCCAAAAAACUGUAUAACUAGAAAAAAUGAGAGAAGCAUGGAGUCACGCAAUCGAUUUGUAUAGUGCUAAAUUAGUAUUAUACUUAUAAUUGGCGUCGGGCGCUUGUCUGACGCUUUUUUGUUGUCUGAAAAAA [RliI]” was run?
A: binds more weakly

Q: For Rli31, which Kd [1] is on record?
A: 273 nM

Q: Which Kd [1] does the source give for “GGUAUCCCAUAGAGAUUGUCAUUUGAAAUAAGCUAAUUGAAAAUAAAUUACUUCCCCCAUAGAAAUAUUCUUAAUUGCUUAUUUCAAAUAAACACUCCUUUAAGAUAGUUGUAGCACAGAAUUUCCCAGAUUCUGUGCUAUAAUUA [Rli31]” here?
A: 273 nM

Q: For “GGGUGGAGAGCUUUCAUUUUUCCCAAGAGAAAGCAAAUAAUGUUAGAGCAAUAAUUCUAGUAUCCGAAUUAGUCUUAUCCCUUGGCUCGCUUUAAUAUUAUUUCUCCCUAAUACUCCCUUAACCGCAUCCCCCUGGUGCGGUUAUUUUUUUG [Rli32]”, which Kd [1] is on record?
A: 273 nM

Q: For Rli32, which Kd [1] is on record?
A: 273 nM

Q: For “GGUAUCCCAUAGAGAUUGUCAGGGGAAAUAAGCUAAUUGAAAAUAAAUUACUUCCCCCAUAGAAAUAUUCUUAAUUGCUUAUUUCAAAUAAACACUCCUUUAAGAUAGUUGUAGCACAGAAUUUCCCAGAUUCUGUGCUAUAAUUA [Rli31 mutant A]”, which binding [1] is on record?
A: binds

Q: For “GGUAUCCCAUAGAGAUUGUCAUUUGAAAUAAGCUAAUUGAAAAUAAAUUACUUUUUCCAUAGAAAUAUUCUUAAUUGCUUAUUUCAAAUAAACACUCCUUUAAGAUAGUUGUAGCACAGAAUUUCCCAGAUUCUGUGCUAUAAUUA [Rli31 mutant E]”, which binding signal [1] is on record?
A: binds more weakly

Q: With “GGGAAAAGAAACCCUAAUGUAUUCGAUAUAGUUCCUGAUAUUUUUGAACCGAACAAUUUUUUAUACCUAGGGAGCUUGGAGUUCCGGCGCGGCGCACAUGCCUUCACACGAGGAAGUGCAAACCGUUAGACAGAGCACCCACCUGCUUUAAUUGAGAGCGGGUUCAAAGGAAGGGAAUCCUAAACGGUACGAUUGGGGUUUCUUUUUUG [6S RNA]” as the molecule, how does the binding [1] read?
A: no binding

Q: Does GTCGCGCAACAAAGTAATAATGCAGATGGACAGACTAATGAAAGACCAG (ssDNA) [pgdA ORF] bind [3]?
A: binds

B1: cap41 dsDNA (dsDNA)
DNA 1: GAGTATAATTATTTTTAATTTACATATAAATAAAAAGGCGAAAATAATGCGGTTTAAAAGTAATTAAT
DNA 2: ATTAATTACTTTTAAACCGCATTATTTTCGCCTTTTTATTTATATGTAAATTAAAAATAATTATACTC
Q: Does B1 bind [4]?
A: no binding
